The values that follow come from patent publication US20260159606A1 (VIB VZW, published 2026).

As a reminder, the EC50 is the concentration at which the effect is half-maximal.

Substitutions are numbered along the chain they refer to.

Test [1] has as its target HN of hPIV-3-GFP virus (on virions and on hPIV-3-infected cells) (human parainfluenza virus 3 (hPIV-3), UniProt P08492 1-572). Description: cell-based or functional assay.
In test [2] the target is T1, HN of hPIV-1-GFP virus (on virions and on hPIV-1-infected cells) (human parainfluenza virus 1 (hPIV-1), UniProt P16071 1-575).
T1 sequence: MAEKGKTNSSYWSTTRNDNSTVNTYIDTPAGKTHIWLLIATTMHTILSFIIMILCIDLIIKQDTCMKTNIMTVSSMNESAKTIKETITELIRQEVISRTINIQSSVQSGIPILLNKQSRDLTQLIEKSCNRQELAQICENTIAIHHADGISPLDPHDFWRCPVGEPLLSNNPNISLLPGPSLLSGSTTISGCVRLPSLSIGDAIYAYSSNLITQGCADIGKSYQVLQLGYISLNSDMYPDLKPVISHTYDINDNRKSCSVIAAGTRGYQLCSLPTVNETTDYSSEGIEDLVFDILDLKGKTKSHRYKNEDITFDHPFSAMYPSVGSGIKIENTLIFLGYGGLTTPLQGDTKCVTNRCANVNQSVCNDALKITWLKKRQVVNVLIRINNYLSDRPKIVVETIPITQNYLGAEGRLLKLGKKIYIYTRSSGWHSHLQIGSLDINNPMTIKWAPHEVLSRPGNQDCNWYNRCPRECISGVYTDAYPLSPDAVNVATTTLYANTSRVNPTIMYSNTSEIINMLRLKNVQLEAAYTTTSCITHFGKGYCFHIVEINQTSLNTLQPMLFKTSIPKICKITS
The experiment in a line: cell-based or functional assay.

For test [3], the target named is T2, hPIV-3 hemagglutinin-neuraminidase (HN), expressed on transfected HEK293T cells (human parainfluenza virus 3 (hPIV-3), UniProt P08492 1-572).
T2 construct: also called hPIV-3 HN; HN3
T2 chain: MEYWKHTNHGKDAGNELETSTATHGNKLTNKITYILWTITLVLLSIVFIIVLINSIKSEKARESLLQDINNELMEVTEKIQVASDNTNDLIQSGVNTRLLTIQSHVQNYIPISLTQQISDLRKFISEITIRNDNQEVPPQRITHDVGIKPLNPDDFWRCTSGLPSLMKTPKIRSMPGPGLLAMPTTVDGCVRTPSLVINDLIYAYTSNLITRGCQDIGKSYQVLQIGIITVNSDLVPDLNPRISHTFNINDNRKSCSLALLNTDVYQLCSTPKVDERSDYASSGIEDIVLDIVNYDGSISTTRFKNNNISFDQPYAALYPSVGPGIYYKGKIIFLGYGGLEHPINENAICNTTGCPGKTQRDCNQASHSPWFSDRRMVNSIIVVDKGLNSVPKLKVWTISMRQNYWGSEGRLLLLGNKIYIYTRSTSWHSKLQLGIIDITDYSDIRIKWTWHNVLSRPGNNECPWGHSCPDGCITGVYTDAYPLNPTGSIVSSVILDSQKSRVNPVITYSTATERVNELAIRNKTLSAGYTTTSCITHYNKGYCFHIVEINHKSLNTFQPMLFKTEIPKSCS
The experiment in a line: flow cytometry on transfected HEK293T cells, 10 µg/ml (FIG. 16A). For orientation: In flow cytometry, cells or beads pass a laser one at a time.

In test [4] the target is T3, D275N- and R277T-mutant hPIV-3 HN, expressed on transfected HEK293T cells (human parainfluenza virus 3 (hPIV-3), UniProt P08492 1-572).
T3 construct: also called mut HN3
T3 chain: T2 chain with D275N, R277T
The experiment in a line: flow cytometry on transfected HEK293T cells, VHH 1 or 0.1 µg/ml (FIG. 11C).

Test [5] has as its target T2, hPIV-3 hemagglutinin-neuraminidase ….
In test [6] the target is T4, hPIV-1 hemagglutinin-neuraminidase (HN), expressed on transfected HEK293T cells (human parainfluenza virus 1 (hPIV-1), UniProt P16071 1-575).
T4 construct: whole, on cells; also called hPIV-1 HN; HN1
T4 sequence: T1 sequence
Description: flow cytometry on transfected HEK293T cells.

The target of test [7] is T5, hPIV-3 fusion protein (F), expressed on transfected HEK293T cells (human parainfluenza virus 3 (hPIV-3), UniProt P06828 19-539).
T5 construct: whole, on cells
Description: flow cytometry on transfected HEK293T cells (FIG. 4).

For test [8], the target named is T3, D275N- and R277T-mutant hPIV-3 HN, …. The experiment in a line: flow cytometry on transfected HEK293T cells (FIG. 11C).
Test [9] has as its target T6, recombinant hPIV-1 HN-dGCN4 (human parainfluenza virus 1 (hPIV-1), UniProt P16071 138-575).
T6 construct: domain: head domain; also called hPIV-1 HN linked to dGCN4; not shown: strep-tag II
The experiment in a line: ELISA, HN protein coated (50 ng), 1/3 dilution series (FIG. 18).

Test [10] has as its target T7, recombinant hPIV-1 HN-tetraGCN4 (human parainfluenza virus 1 (hPIV-1), UniProt P16071 138-575).
T7 construct: domain: head domain; also called hPIV-1 HN linked to tetraGCN4; not shown: strep-tag II
Described as above.

Test [11] addresses T8, recombinant hPIV-3 HN-dGCN4 (human parainfluenza virus 3 (hPIV-3), UniProt P08492 136-572).
T8 construct: domain: head domain; also called hPIV-3 HN linked to dGCN4; not shown: strep-tag II
The test is described as above.

B1: bivalent VHH A2R3-59-59 (VHH)
chain: QVQLQESGGGLVQPGGSLRLSCAASGSISGINGMGWYRQAPGKQRELVAAITSGGSTNYADSVKGRFTISRDNAKNTVDLQMNSLQPEDTAVYYCYVSSTPSWGLYDDYWGQGTQVTVSSGGGGSGGGGSGGGGSQVQLQESGGGLVQPGGSLRLSCAASGSISGINGMGWYRQAPGKQRELVAAITSGGSTNYADSVKGRFTISRDNAKNTVDLQMNSLQPEDTAVYYCYVSSTPSWGLYDDYWGQGTQVTVSS
notes: also called bivalent A2R3-59
As to B1, the “fold higher potency of hPIV-3-GFP neutralization than the monovalent counterpart” value in test [1] is roughly 8 fold. In addition, in [2], the “IC50 of neutralization of hPIV-1-GFP on Vero (E6) TMPRSS2 cells” value is 2.9 nM. In addition, the binding result in test [3] and in test [4] was “binds” in each case.

B2: VHH A2R3-55 (VHH)
VHH: QVQLQESGGGLVQAGGSLRLSCAASGSIDRIDAMGWSRQAPGKQRELVATITTGGITNYAVSVKGRFTISRDNAKNTVYLQMNSLKPEDTAVYYCNAQGAPSWGLYEDYWGQGTQVTVSS
For B2, the “fold reduction of binding at 500 µg/ml of zanamivir” value in [5] was roughly 5 fold. Moreover, the binding result in test [6] is recorded as “no binding”; in test [7] it was “no binding (tested: 1 µg/ml)”; in test [8], “no binding (tested: 1 or 0.1 µg/ml)”.

B3: VHH A2R3-57 (VHH)
VHH: QVQLQESGGGLVQPGGSLRLSCAASGSIFSTDAMGWYRQPPGKQRELVATITSGGSTNYVDSVKGRFTISRDNAKNTVYLQMNSLKPEDTAVYYCALHQTTGWGLYNDYWGQGTQVTVSS
notes: also called 2AR-57
In the case of B3, the “fold reduction of binding at 500 µg/ml of zanamivir” value in test [5] was roughly 5 fold. The values for the binding result in test [7] and in test [8] were “no binding (tested: 1 µg/ml)” and “no binding (tested: 1 or 0.1 µg/ml)”, respectively.

B4: humanized A2R3-60-Fc construct version 1 (Fc fusion)
chain: DVQLVESGGGLVQPGGSLRLSCAASGTTVSINGMGWYRQAPGKQREFVALSTTGGVTNYADSVKGRFTISRDNAKNTVYLQMNSLRPEDTAVYYCNAVASPSWGLYDDYWGQGTLVTVSSGGGGSGGGGSDKTHTCPPCPAPEAAGGPSVFLFPPKPKDTLMISRTPEVTCVVVDVSHEDPEVKFNWYVDGVEVHNAKTKPREEQYNSTYRVVSVLTVLHQDWLNGKEYKCKVSNKALGAPIEKTISKAKGQPREPQVYTLPPSRDELTKNQVSLTCLVKGFYPSDIAVEWESNGQPENNYKTTPPVLDSDGSFFLYSKLTVDKSRWQQGNVFSCSVMHEALHNHYTQKSLSLSPG
notes: also called A2R3-h60-Fc; h60-Fc
Consider B4, for which the EC50 in test [9] worked out at 32 µg/mL; in test [10] it was 71 µg/mL; in [11] it was 0.018 µg/mL. Besides, in test [3], the binding result was “binds”.

B5: bivalent VHH A2R3-60-60 (VHH)
chain: QVQLQESGGGLVQPGGSLRLDCAASGTTVSINGMGWYRQAPGKQREFVALSTTGGVTNYADSVKGRFTISMDNAKKTVALQMNSLKPEDTAVYYCNAVASPSWGLYDDYWGQGTQVTVSSGGGGSGGGGSGGGGSQVQLQESGGGLVQPGGSLRLDCAASGTTVSINGMGWYRQAPGKQREFVALSTTGGVTNYADSVKGRFTISMDNAKKTVALQMNSLKPEDTAVYYCNAVASPSWGLYDDYWGQGTQVTVSS
notes: also called bivalent A2R3-60
With B5, the “fold higher potency of hPIV-3-GFP neutralization than the monovalent counterpart” value in test [1] is roughly 7.5 fold. Also, the EC50 worked out at 167 µg/mL in [9], 50 µg/mL in test [10] and 0.02 µg/mL in [11]. For the same molecule, the binding result in test [3] and in test [4] was “binds” throughout.
